Measured values from patent US20230039976A1.

Tests used:
[1] = molecular target: programmed cell death protein 1 (PD-1) on tumor infiltrating lymphocytes (human) (UniProt Q15116); test: flow cytometry of melanoma tumor digest M1156; EH12.2H7 staining; percent of CD3+ cells stained
[2] = molecular target: programmed cell death protein 1 (PD-1) on tumor infiltrating lymphocytes (human) (UniProt Q15116); test: flow cytometry of ovarian tumor digest OV8074; EH12.2H7 staining; percent of CD3+ cells stained
[3] = molecular target: programmed cell death protein 1 (PD-1) on tumor infiltrating lymphocytes (human) (UniProt Q15116); test: flow cytometry of head and neck tumor digest H3046; EH12.2H7 staining; percent of CD3+ cells stained

Sequence of UniProt Q15116 (Q15116 25-288): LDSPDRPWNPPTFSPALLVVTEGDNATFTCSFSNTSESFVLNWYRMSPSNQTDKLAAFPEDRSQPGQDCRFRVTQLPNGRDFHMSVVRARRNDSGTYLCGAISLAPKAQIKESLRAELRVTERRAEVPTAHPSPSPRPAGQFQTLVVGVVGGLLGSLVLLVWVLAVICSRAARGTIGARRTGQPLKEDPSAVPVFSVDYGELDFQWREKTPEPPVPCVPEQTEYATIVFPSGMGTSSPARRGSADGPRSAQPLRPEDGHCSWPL

B1: anti-PD-1 antibody clone EH12.2H7 (BioLegend, Cat #329906) (antibody, from another filing, V domains shown)
VH: QVQLQQSGAELAKPGASVQMSCKASGYSFTSSWIHWVKQRPGQGLEWIGYIYPSTGFTEYNQKFKDKATLTADKSSSTAYMQLSSLTSEDSAVYYCARWRDSSGYHAMDYWGQGTSVTVSS
VL: DIVLTQSPASLTVSLGQRATISCRASQSVSTSGYSYMHWYQQKPGQPPKLLIKFGSNLESGIPARFSGSGSGTDFTLNIHPVEEEDTATYYCQHSWEIPYTFGGGTKLEIK
Pre-sort % PD-1+ (of CD3+) [1]: 93% | Pre-sort % PD-1+ (of CD3+) [2]: 70% | Pre-sort % PD-1+ (of CD3+) [3]: 13%
